Consider 13 molecules from patent publication US20190135876A1 (TRELLIS BIOSCIENCE, published 2019).

The labels stand for the following.
B8: RSV G[161-197] (peptide)
peptide: MGNDFHFEVFNFVPCSICSNNPTCWAICKRIPNKKPGKKHHHHHH

One assay concerns the target CX3CR1 (human) (UniProt P49238). As to the kind of experiment: cell-based or functional assay. Particulars: scale: chemotactic index.
For assay [1], the target named is T1, CX3CR1 (human, UniProt P49238 1-355).
T1 sequence: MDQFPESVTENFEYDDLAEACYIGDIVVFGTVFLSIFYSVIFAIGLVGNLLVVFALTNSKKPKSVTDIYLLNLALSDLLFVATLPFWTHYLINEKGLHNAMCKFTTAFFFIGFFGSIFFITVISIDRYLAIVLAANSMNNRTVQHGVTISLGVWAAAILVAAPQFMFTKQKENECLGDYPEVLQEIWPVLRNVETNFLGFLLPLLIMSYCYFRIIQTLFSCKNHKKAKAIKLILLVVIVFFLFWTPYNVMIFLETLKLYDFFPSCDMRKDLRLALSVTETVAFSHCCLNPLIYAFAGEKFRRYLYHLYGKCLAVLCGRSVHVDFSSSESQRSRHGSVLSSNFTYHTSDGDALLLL
As to the kind of experiment: cell-based or functional assay.

For assay [2], the target named is T1, CX3CR1. As to the kind of experiment: cell-based or functional assay. The source holds these as a separate data set.
For the next assay, the target named is T2, RSV G[169-198] (respiratory syncytial virus).
T2 construct: also called synthetic RSV G peptide
T2 peptide: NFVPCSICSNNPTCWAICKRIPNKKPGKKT
In words: complex formation and X-ray crystal structure.

The assay “RSV G[161-197]” deals with B8. As to the kind of experiment: cell-based or functional assay.

Description for RSV G[169-198]: Diffraction data from a single crystal were processed with HKL2000.

Take “anti-CX3CR1 rabbit polyclonal antibody (ThermoFisher Scientific Cat# PAS-19910)”: the chemotactic index of THP-1 cells pre-incubated with anti-CX3CR1 antibody, toward 5 nM RSV G[161-197] in the assay with CX3CR1 (human) was determined as 1.1.

B1: RSV G (CCR) variant S177→W (peptide)
peptide: NDFHFEVFNFVPCSICWNNPTCWAICKRIPNKKPGKK
Take B1: in the assay with CX3CR1 [1], the “Chemotactic activity (THP-1 chemotaxis assay, duplicate assays, standard deviation in parentheses)” value is 1.2 chemotactic index (negative control PBS = 1.0).

B2: RSV G (CCR) variant H164→Y (peptide)
peptide: NDFYFEVFNFVPCSICSNNPTCWAICKRIPNKKPGKK
B2: the “Chemotactic activity (THP-1 chemotaxis assay, duplicate assays, standard deviation in parentheses)” value with CX3CR1 [1] was 3.8 chemotactic index (negative control PBS = 1.0).

B3: RSV G (CCR) variant S177→R (peptide)
peptide: NDFHFEVFNFVPCSICRNNPTCWAICKRIPNKKPGKK
Turning to B3, the “Chemotactic activity (THP-1 chemotaxis assay, duplicate assays, standard deviation in parentheses)” value in the assay with CX3CR1 [1] was 0.9 chemotactic index (negative control PBS = 1.0).

B4: RSV G (CCR) variant K192→E + K193 →E (peptide)
peptide: NDFHFEVFNFVPCSICSNNPTCWAICKRIPNEEPGKK
For B4, in the assay with CX3CR1 [1], the “Chemotactic activity (THP-1 chemotaxis assay, duplicate assays, standard deviation in parentheses)” value is 2.5 chemotactic index (negative control PBS = 1.0).

B5: Wild type RSV G (CCR) (peptide)
peptide: NDFHFEVFNFVPCSICSNNPTCWAICKRIPNKKPGKK
Turning to B5, the “Chemotactic activity (THP-1 chemotaxis assay, duplicate assays, standard deviation in parentheses)” value in the assay with CX3CR1 [1] is 6.2 chemotactic index (negative control PBS = 1.0).

B6: RSV G (CCR) variant E166→K + K187 →E (peptide)
peptide: NDFHFKVFNFVPCSICSNNPTCWAICERIPNKKPGKK
On to B6, for which the “Chemotactic activity (THP-1 chemotaxis assay, duplicate assays, standard deviation in parentheses)” value with CX3CR1 [1] was 1.8 chemotactic index (negative control PBS = 1.0).

B7: RSV G (CCR) variant E166→K (peptide)
peptide: NDFHFKVFNFVPCSICSNNPTCWAICKRIPNKKPGKK
Take B7: the “Chemotactic activity (THP-1 chemotaxis assay, duplicate assays, standard deviation in parentheses)” value with CX3CR1 [1] is 1.6 chemotactic index (negative control PBS = 1.0).

Turning to B8, the “chemotactic index of THP-1 cells toward 5 nM RSV G[161-197]” value in the assay with CX3CR1 [2] was 4.2 chemotactic index (fold over serum-free media).

B9: scFv 2D10 (scFv)
scFv: QVQLVQSGPEVKKPGASVRLSCKASGYVFTNYGVSWVRQAPGQGLEWMGWSSPYNGNTYYAQKLKARVTMTTDTSTNTAYMELRSLRSDDTAVYYCGRDMLGVVQAVAGPFDSWGQGTLVTVSSASGGGGSGGGGSGGGGSGGGDTPMTQSPSSVSASVGDRVTISCRASQGISNSLAWYQQKLGKAPQLLIYAASSLQSGVPSRFSGSGSGTDFTLTISSLQPEDFATYYCQQTNTFPFTFGPGTKVEVRR
notes: Expressed in Drosophila S2 cells with BiP signal; Twin-Strep tag removed with thrombin before use; A few vector residues probably remain at both ends (RS; ASLVPR); also called recombinant single-chain variable fragment (scFv) of 2D10
For B9, in the assay with RSV G[169-198], the binding result was “binds”.

B10: mAb 2D10 (antibody, V domains shown)
VH: QVQLVQSGPEVKKPGASVRLSCKASGYVFTNYGVSWVRQAPGQGLEWMGWSSPYNGNTYYAQKLKARVTMTTDTSTNTAYMELRSLRSDDTAVYYCGRDMLGVVQAVAGPFDSWGQGTLVTVSS
VL: DTPMTQSPSSVSASVGDRVTISCRASQGISNSLAWYQQKLGKAPQLLIYAASSLQSGVPSRFSGSGSGTDFTLTISSLQPEDFATYYCQQTNTFPFTFGPGTKVEVRR
As for B10, in the assay with RSV G[161-197], the “chemotactic index of THP-1 cells toward 5 nM RSV G[161-197] pre-incubated with 25 nM mAb” value is 1 chemotactic index (fold over serum-free media).

B11: RSV G ectodomain (G[ecto]) (other)
chain: SANHKVTPTTAIIQDATSQIKNTTPTYLTQNPQLGISPSNPSEITSQITTILASTTPGVKSTLQSTTVKTKNTTTTQTQPSKPTTKQRQNKPPSKPNNDFHFEVFNFVPCSICSNNPTCWAICKRIPNKKPGKKTTTKPTKKPTLKTTKKDPKPQTTKSKEVPTTKPTEEPTINTTKTNIITTLLTSNTTGNPELTSQMETFHSTSSEGNPSPSQVSTTSEYPSQPSSPPNTPRQHHHHHHGWSHPQFEKGGGSGGGSGGGSWSHPQFEK
For the molecule B11, the “chemotactic index of THP-1 cells toward 5 nM RSV G[ecto]” value with CX3CR1 [2] is 3.9 chemotactic index (fold over serum-free media).

B12: mAb 3D3 (antibody, V domains shown)
VH: EEQLVESGGGLVQPGRSLRLSCVGSGLRFEEHAMHWVRQAPGRGLEWVSGISWNSGSVGYADSVKGRFTTSRDNAKDILFLEMNTLRSEDTALYFCAIMVATTKNDFHYYKDVWGKGTTVTVSS
VL: QIVLTQSPATLSLSPGERATLSCRASQSVSNHLAWYQQKPGQAPRLLIYETSNRATGIPPRFSGSGSGTDFTLTISSLEPEDFAVYYCQQRNNWYTFGQGTKLEIK
As for B12, the “chemotactic index of THP-1 cells toward 5 nM RSV G[161-197] pre-incubated with 25 nM mAb” value with RSV G[161-197] was 1.5 chemotactic index (fold over serum-free media).
